The nanobody polyreactivity screen of Harvey et al. (2022)

Assay: yeast display, Sf9 membrane polyspecificity reagent, FACS + sequencing; frameworks hold sequencing errors
Outline: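 Genes from sorted yeast were amplified by colony PCR, read by MiSeq 2 × 250 sequencing and filtered on CDR length. These cells carried a synthetic nanobody library in Saccharomyces cerevisiae BJ5465 and were sorted by FACS into low and high (top ~1%) gates on anti-HA and streptavidin fluorescence. Polyreactivity is labelled according to the gate of origin.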

Sequence	polyreactivity (PSR sort gate)
QVQLVESGGGLVQAGGSLRLSCAASGSIFGPYAMGWYRQAPGKERELVAVISRSGGSTYYADSVKGRFTISRDNAKNTVYLQMNSLKPEDTAVYYCAAYRGPRADYYWGQGTHVTVSS	high polyreactivity
QVQLVESGGGLVQAGGSLRLSCAASGSIFGPYAMGWYRQAPWKERELVATSTYYADSVKGRFTISRDNAKNTVYLQMNSLKPEDTAVYYCAKTPYYSGYGWGYDYWGQGTQVTVSS	low polyreactivity
QVQLVESGGGLVQAGGSLRLSCAASGSIFGPYVMGWYRQAPGKERELVAAISKSGGSTYYADSVKGRFTISRDNAKNTVYLQMNSLKPEDTAVYYCATDYLGGGKRYYYWGQGTQVTVSS	high polyreactivity
QVQLVESGGGLVQAGGSLRLSCAASGSIFGPYVMGWYRQAPGKERELVAAITFSGGSTYYADSVKGRFTISRDNAKNTVYLQMNSLKPEDTAVYYCNARPYSYRGSKRMYYWGQGTQVTVSS	high polyreactivity
QVQLVESGGGLVQAGGSLRLSCAASGSIFGQYAMGWYRQAPGKERELVASISASAASTYYADSVKGRFTISRDNAMNTVYLQLNSLKPEDTAVYYCNATTRWIGYVTIDFDYWGQGTQVNVSS	low polyreactivity
QVQLVESGGGLVQAGGSLRLSCAASGSIFGRNAKGWYRQAPRKERELVAAINSGGSTNYADSVKGRFTISRDNAKNTVYLQMNSLKPEDTAVYYCAARTYSSGRYYGYVAFYYWGQGTQVTVSS	high polyreactivity
QVQLVESGGGLVQAGGSLRLSCAASGSIFGRNAMGWSRQAPGTERELVARISSRGGSTYYADSVKGRFTISRDNAKNTVYLQMNSLKPEDTAVYYCNRDRTWQTNDYWGQGTQVTVSS	high polyreactivity
QVQLVESGGGLVQAGGSLRLSCAASGSIFGRNAMGWYRQAPGKERELVAAITWRTGSTFYADSVKGRFTISRDNAKNTVYLQMNCLKPEDTAVYYCNAAGPAYSYYHWLWGDYNSWRQGTQVTVSS	low polyreactivity
QVQLVESGGGLVQAGGSLRLSCAASGSIFGRNAMGWYRQAPGKERELVAGMFYADSEKGRFTISRDNAKNTVYLQMNSLKPEDTAVYYCNADGTTDISNDNWYGYWGQGTQVTVSS	low polyreactivity
QVQLVESGGGLVQAGGSLRLSCAASGSIFGRNTMGWYRPAPGKERELVAAISSGGRTYYADSVKGRFTISRDNAKITVYLQINSLKPEDTAVYYCAAALRRRRADFDYWGQGTQVTVSS	high polyreactivity
QVQLVESGGGLVQAGGSLRLSCAASGSIFGRNTMGWYRQAPGKERELVAAISSRGTSTYYADSVKGRFTISRDNAKNTVYLQMNSLKPEDTAVYYCAARVYPYNYWGQGTQVTVSS	high polyreactivity
QVQLVESGGGLVQAGGSLRLSCAASGSIFGRNTMGWYRQAPGKERELVAAISSSGGSTRYADSVKGRFTISRDNAKITVYLQMNSLKQEDTAVYYCNDRPRTIYVNRKYDYWGQCTQVTVSS	high polyreactivity
QVQLVESGGGLVQAGGSLRLSCAASGSIFGRYAKRWYRQAPGKERELVAAISWNGGSTYYADSVKGRFTISRDNAKKTVDLQMNSLKPEDPAVYYCAVLSWWTKLSRRFYYWGQGTQVTVSS	high polyreactivity
QVQLVESGGGLVQAGGSLRLSCAASGSIFGRYAMGWYRQAPGKERELVAAIDGGGSTNYADSVKGRFTISRDNAKNTVYVQMNSLKPEDTAVYYCATEAKAYRYYYRTRHYYYWGQGTQVTVSS	low polyreactivity
QVQLVESGGGLVQAGGSLRLSCAASGSIFGRYAMGWYRQAPGKERELVAAISWRGGSTYYADSVKGRFTISRDNAKNTVYLQMNRLKPEDTAVYYCAKSGTFYYPRYDYWGQGTQVTVSS	high polyreactivity
QVQLVESGGGLVQAGGSLRLSCAASGSIFGRYAMGWYRQAPGKERELVAAISWRGGSTYYADSVKGRFTISRDNAKNTVYLQMNSLKPEDTAVYYCNVPYRSGYSHRYDYWGQGTQVTVSS	high polyreactivity
QVQLVESGGGLVQAGGSLRLSCAASGSIFGRYTMGWYRQAPGKERELVAAISSSGGRTYYADSVKGRFTISRDNAKNTVFLQMNSLKPEDTAVYYCNNGYGYEYYWGQGTQVTVSS	low polyreactivity
QVQLVESGGGLVQAGGSLRLSCAASGSIFGRYVMGWYRQAPGKERELVARITQSGGSTYYADSVKGRFTISRDNAKNTVYLQMNSLKPEDTAVYYCAAATSWWWLYYWGQGTQVTVSS	high polyreactivity
QVQLVESGGGLVQAGGSLRLSCAASGSIFGSNAMGWYRQAPGKERELVASITSSGGSTHYADSVKGRFTISRDNAKNTVYLQMNSLKPEDTAVYYCATRAYGYYRWLYDYWGQGTQVTVSS	low polyreactivity
QVQLVESGGGLVQAGGSLRLSCAASGSIFGSNMGWYRQAPGKERELVAAISSRGGRTYYADSVKGRFTISRDNAKNTVYLQMNSLKPEDTAVYYCATRTFRGCRGYEYWGQGTQVTVSS	high polyreactivity
QVQLVESGGGLVQAGGSLRLSCAASGSIFGSYAMGWSRQAPGKERELVAAISKSGGNTYYADSVKGRFTISRDNAKNTVYLQMNSLKPEDTAVYYCAAYGFYRWRGYDYWGQGTQVTVSS	high polyreactivity
QVQLVESGGGLVQAGGSLRLSCAASGSIFGSYAMGWYRQAPGKEREFVAGIDQSGSSTYYADSVKGRFTISRDNAKNTVYLQMNSLKPEDTAVYYCNAVWYFYSTYRKYYYWGQGTQVTVSS	high polyreactivity

Sequence	polyreactivity (PSR sort gate)
QVQLVESGGGLVQAGGSLRLSCAASGSIFGSYAMGWYRQAPGKERELVAAISGSGGRTYYADSVKGRFTISRDNAKNTVYFQMNSLKPEVTAVYYCAAAYPRVTYKYGYYWGLGTQVTVSS	high polyreactivity
QVQLVESGGGLVQAGGSLRLSCAASGSIFGSYAMGWYRQAPGKERELVADISRRGSSTYYADSVKGRFTISRDNAKNTVYLQMNSLKPEDTAVYYCNKVFARSLSSRYQAYDYWGQGTQVNVSS	high polyreactivity
QVQLVESGGGLVQAGGSLRLSCAASGSIFGSYAMGWYRQAPGKERELVAVITSASTNYADSVKGRFTISRDNAKNTVYLQMNSLKPEDTAVYYCNAALSHDFWNYRLGYWGQGTQVTVSS	low polyreactivity
QVQLVESGGGLVQAGGSLRLSCAASGSIFGSYAMGWYRQATGNERELVAAIRSSASTYYADSVKGRFTISRDNAKNTVYLQMYSLKPEDTAVYYCAAKFTSYGRSRYYSWGQGTQVTVSS	high polyreactivity
QVQLVESGGGLVQAGGSLRLSCAASGSIFGSYTMGWYRQAPGKERELVAAISLGGGSTYYADSVKGRFSISRDNAKNTVYLQMNSLKPEDTAVYYCAAGFTYPYDYWGQGTQVTVSS	low polyreactivity
QVQLVESGGGLVQAGGSLRLSCAASGSIFGSYVMVWYRQAPGKERELVAAISKSGGRTYYADSVKGRFTISRDNAKNTVYLQMKSLKPEDTAVYYCAVLPRVKDGTGGDYWGQGTQVTVSS	high polyreactivity
QVQLVESGGGLVQAGGSLRLSCAASGSIFGTNAMGWYRQAPGKERELVAAINSGGSTNYADSVKGRFTISRDNAKNTVYLQMNSLKPEDTAVYYCAADEGLWSPSRNAYDYDYWGQGTQVSVSS	low polyreactivity
QVQLVESGGGLVQAGGSLRLSCAASGSIFGTNGMGWYRQAPGKERELVAAITRRGGSTYADSVKGRFTISRDNAKNTVYLQMNSLKPEDTAVYYCAAQGYLRLRTHFNYWGQGTQVTVSS	low polyreactivity
QVQLVESGGGLVQAGGSLRLSCAASGSIFGTYAMGWYRPAPGNERELVAAITWRDDGNTYYADSVQGRFTISRDNAKNTVYLQMNSLQPEDTAVYYGAASRAYGKDAYRGYSYRYDYWGQGTQGTVSS	high polyreactivity
QVQLVESGGGLVQAGGSLRLSCAASGSIFGTYAMGWYRQAPGKERELVAAITSSGGSTYYADSVKGRFTISRDNAKNTVYLQMNSLKPEDTAVYYCAAYRRIRVGVPVRTYYYWGQGTQVTVSS	high polyreactivity
QVQLVESGGGLVQAGGSLRLSCAASGSIFGVNALGWYRQAPGKERELVASITGGDSTNYADSVKGRFTISRDNAKNTVYLQMNSLKPEDTAFYYCAKDHYYRYEEGDYWGQGTQVTVSS	low polyreactivity
QVQLVESGGGLVQAGGSLRLSCAASGSIFGVNVMGWYRQAPGKERELVASISGGGSTDYADSVKGRFTISRDNAKNTVYLQMNSLKPEDTAVYYCNAKYWWSNYYWGQGTQVTVSS	low polyreactivity
QVQLVESGGGLVQAGGSLRLSCAASGSIFGVYAMGWYRQAPGKEREFVASISWSAGSTYYADSVKGRFTISRDNAKNTVYLQMNSLKPEDTAVYYCAARVWRYPYYWGQGTQVTVSS	high polyreactivity
QVQLVESGGGLVQAGGSLRLSCAASGSIFGVYAMGWYRQAPGKERELVAAISSRGSSTYYADSVKGRFTISRDNAKNTVYLQMNSLKPEDTAVYYCAARPGIRSYPPGYGYWGQGTQVTVSS	high polyreactivity
QVQLVESGGGLVQAGGSLRLSCAASGSIFGVYAMGWYRQAPGKERELVATISRSGAITYYADSVKGRFTISRDNAKNTVYLQMNSLKPEDTAVYYCAADFFSRDWGQGTQVTVSS	low polyreactivity
QVQLVESGGGLVQAGGSLRLSCAASGSIFGVYTMGWYRQAPGKERELVAAISRNGGSTYYEDSVKGRFTISRDNAKNTVYLQMNSLKPEDTAVYYCATSTSRRYGSRHNYWGQGTQVTVSS	high polyreactivity
QVQLVESGGGLVQAGGSLRLSCAASGSIFGWYAMGWYRQAPGKEREFVAAISGGSTYYADSVKGRFTISRDNAKNTVYLQMNSLKPEDTAVYYCNAQGYYFYPFDYWGQGTQVTVSS	high polyreactivity
QVQLVESGGGLVQAGGSLRLSCAASGSIFGWYAMGWYRQAPGKERELVAAAIDYRDDSTYYADSVKGRFTISRDIAKNTVYLQMNSLKPEDTAVYYCAAEKDGDWRGYDYWGQGTQVTVSS	low polyreactivity
QVQLVESGGGLVQAGGSLRLSCAASGSIFGWYAMGWYRQAPGKERELVAAISSSDGSTYYADSVKGRFTISRDNANNTVYFPMNSLKPEDTEVYYCATDYAFTYAQYDYWGQGTQVTVSS	low polyreactivity
QVQLVESGGGLVQAGGSLRLSCAASGSIFGYAMGWYRQAPGKERELVAAIRWGGGSTYYADSVKGRFTISRDNAKYNVYLQMNSLKPEDTAVYYCAARVGRQWYDYWGQGTQVTVSS	high polyreactivity
QVQLVESGGGLVQAGGSLRLSCAASGSIFGYKAMGWYRQAPRKERELVAAIRSSDSRTHYADSVKGRFTISRDNAKNTVYLQMNRLKPEDTAVYYCAAVKRRPGHYLYDYWGQGTQVTVSS	low polyreactivity
